Reference: patent US20240294670A1 (University of Texas, published 2024)

Experiments:
Assay in all cases: anti-His co-IP of rCHI3L1 from Kupffer cell lysate, MS; listed under 'proteins bound to CHI3L1'
Q3TVM2_MOUSE = molecular target: T1, Q3TVM2_MOUSE (mouse, UniProt Q3TVM2 20-519)
T1 construct: also called tr|Q3TVM2|Q3TVM2_MOUSE
T1 sequence: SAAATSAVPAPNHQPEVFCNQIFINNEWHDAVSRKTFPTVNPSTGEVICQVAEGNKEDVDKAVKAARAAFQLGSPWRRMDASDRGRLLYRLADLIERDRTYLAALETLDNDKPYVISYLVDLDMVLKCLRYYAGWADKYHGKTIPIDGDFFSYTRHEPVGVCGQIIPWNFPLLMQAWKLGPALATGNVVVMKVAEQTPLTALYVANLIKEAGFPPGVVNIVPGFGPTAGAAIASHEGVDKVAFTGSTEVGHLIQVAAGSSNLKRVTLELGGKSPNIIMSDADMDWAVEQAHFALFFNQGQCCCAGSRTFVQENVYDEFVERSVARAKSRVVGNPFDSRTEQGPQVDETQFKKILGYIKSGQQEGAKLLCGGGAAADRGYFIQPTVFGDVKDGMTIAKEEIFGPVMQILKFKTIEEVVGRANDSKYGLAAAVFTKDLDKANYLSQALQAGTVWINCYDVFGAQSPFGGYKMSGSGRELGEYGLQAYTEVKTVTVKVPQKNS
Procedure: (§1) CHI3L1 interacts with CD44 on KCs. To further understand how CHI3L1 mediates the function of KCs to recruit platelets, the inventors set out to identify its receptor on KCs. They isolated KCs from WT mice treated with APAP for 3 h and incubated the cells with His-tagged rCHI3L1. The cell lysate was subjected to immunoprecipitation using an anti-His antibody. The “pulled down” fraction was subjected to LC/MS analyses. A partial list of proteins identified, including CHI3L1 itself, is shown in (Extended Data Table 1). Because CD44 is a cell membrane protein, the inventors decided to investigate it is a receptor for CHI3L1. They performed/immunoprecipitation experiments using liver homogenates obtained from WT and CD44^{-/-} mice after APAP treatment. […] Moreover, the inventors incubated rhCHI3L1 with human CD44 and then immunoprecipitated with an anti-CD44 antibody. The data confirmed a direct binding between CHI3L1 and CD44 (FIG. 3C). Consistent with the notion that many cell types express CD44, they detected CD44 express on various hepatic non-parenchymal cells (NPCs) except B cells and DCs (summarized in Extended Data Table 2). However, when they incubated liver NPCs with His-tagged rCHI3L1, the inventors observed that the only CD44-expressing cells that could bind to CHI3L1 were KCs (FIG. 3D).

Q3TF14_MOUSE = molecular target: T2, Q3TF14_MOUSE (mouse, UniProt Q3TF14 2-432)
T2 construct: also called tr|Q3TF14|Q3TF14_MOUSE
T2 sequence: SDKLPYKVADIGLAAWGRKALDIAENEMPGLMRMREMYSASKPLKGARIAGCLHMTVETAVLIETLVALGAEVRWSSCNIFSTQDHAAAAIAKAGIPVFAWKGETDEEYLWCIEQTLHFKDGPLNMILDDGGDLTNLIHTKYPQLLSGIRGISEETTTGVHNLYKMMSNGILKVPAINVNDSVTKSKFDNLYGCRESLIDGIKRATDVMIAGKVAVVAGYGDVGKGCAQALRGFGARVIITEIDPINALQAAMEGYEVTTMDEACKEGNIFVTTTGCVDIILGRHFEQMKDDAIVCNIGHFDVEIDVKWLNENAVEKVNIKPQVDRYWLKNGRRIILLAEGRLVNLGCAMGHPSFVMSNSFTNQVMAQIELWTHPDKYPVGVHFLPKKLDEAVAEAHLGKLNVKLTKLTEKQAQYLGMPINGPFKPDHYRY
Procedure: as §1

Q3TJ66_MOUSE = molecular target: T3, Q3TJ66_MOUSE (mouse, UniProt Q3TJ66 2-364)
T3 construct: also called tr|Q3TJ66|Q3TJ66_MOUSE
T3 sequence: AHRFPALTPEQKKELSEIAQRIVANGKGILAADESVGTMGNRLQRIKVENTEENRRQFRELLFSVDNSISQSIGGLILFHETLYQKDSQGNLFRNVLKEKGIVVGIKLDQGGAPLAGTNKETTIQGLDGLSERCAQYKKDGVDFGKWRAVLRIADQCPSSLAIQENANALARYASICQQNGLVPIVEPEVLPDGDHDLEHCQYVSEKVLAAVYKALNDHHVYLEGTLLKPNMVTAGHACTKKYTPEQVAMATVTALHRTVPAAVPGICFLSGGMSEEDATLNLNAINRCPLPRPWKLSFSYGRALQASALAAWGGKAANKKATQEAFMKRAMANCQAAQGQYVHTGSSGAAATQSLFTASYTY
Procedure: as §1

D3Z041_MOUSE = molecular target: T4, D3Z041_MOUSE (mouse, UniProt D3Z041 1-699)
T4 construct: also called tr|D3Z041|D3Z041_MOUSE
T4 sequence: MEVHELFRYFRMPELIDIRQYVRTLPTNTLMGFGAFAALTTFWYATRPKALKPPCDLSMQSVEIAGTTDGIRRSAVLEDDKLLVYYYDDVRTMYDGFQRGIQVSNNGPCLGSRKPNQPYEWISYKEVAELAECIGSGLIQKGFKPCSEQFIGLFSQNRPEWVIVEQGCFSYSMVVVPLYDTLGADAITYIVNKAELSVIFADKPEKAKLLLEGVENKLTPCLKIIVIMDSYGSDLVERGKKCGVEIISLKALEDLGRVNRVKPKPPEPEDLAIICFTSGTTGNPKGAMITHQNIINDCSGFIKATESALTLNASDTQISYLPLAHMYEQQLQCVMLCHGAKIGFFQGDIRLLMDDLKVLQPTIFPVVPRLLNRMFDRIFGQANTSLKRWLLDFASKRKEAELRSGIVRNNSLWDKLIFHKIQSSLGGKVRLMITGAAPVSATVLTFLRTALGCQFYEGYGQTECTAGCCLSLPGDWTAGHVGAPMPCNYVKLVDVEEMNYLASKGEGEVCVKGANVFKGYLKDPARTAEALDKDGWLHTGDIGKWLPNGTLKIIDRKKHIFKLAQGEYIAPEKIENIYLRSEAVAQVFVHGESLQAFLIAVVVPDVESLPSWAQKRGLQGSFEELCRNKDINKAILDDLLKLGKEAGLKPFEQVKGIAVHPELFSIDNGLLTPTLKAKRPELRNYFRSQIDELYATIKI
Procedure: as §1

binding result (Q3TVM2_MOUSE): binds
binding result (Q3TF14_MOUSE): binds
binding result (Q3TJ66_MOUSE): binds
binding result (D3Z041_MOUSE): binds
B1: recombinant mouse CHI3L1 (ligand)
chain: not shown
notes: His-tagged; also called mCHI3L1; mChi3l1
